Source: the MegaScale stability set (Tsuboyama et al. 2023)

B1: EEHEE_rd4_0763 (parent)
chain: LTVHVGNVTYHFDNPEQAEEWAKRMAKKYQGQIHVKDGQFRIE

Variants of: B1
Test: folding stability dG (cDNA display proteolysis); higher = more stable
Details: PBS, room temperature

| Variant | folding stability dG [kcal/mol] |
| --- | --- |
| V3G | 0.606 |
| V3W | 0.755 |
| T2L | 1.64 |
| T2I | 1.59 |
| T2K | 1.41 |
| A22Y | 1.06 |
| A22L | 1.36 |
| Y29A | 0.762 |
| Y29V | 1.27 |
| Y29F | 1.53 |
| P15F | 1.94 |
| P15L | 1.86 |
| P15Y | 2.17 |
| P15N | 1.38 |
| V5S | 0.647 |
| V5M | 1.48 |
| V5T | 0.582 |
| V5A | 1.32 |
| V5H | 1.26 |
| V5Y | 1.41 |
| V5N | 0.616 |
| Q30N | 2.06 |
| Q30V | 1.23 |
| K36V | 2.24 |

| Variant | folding stability dG [kcal/mol] |
| --- | --- |
| K36P | 0.849 |
| R41E | 1.59 |
| R41S | 1.57 |
| M25D | -0.162 |
| M25F | 1.42 |
| N14V | 1.39 |
| N14A | 1.42 |
| N14G | 1.03 |
| N14D | 1.81 |
| Q32S | 1.62 |
| Q32Y | 1.51 |
| Q32A | 1.52 |
| Q32H | 1.81 |
| Q32M | 1.49 |
| Q32V | 2.02 |
| W21R | -0.245 |
| W21F | 2.28 |
| W21S | 0.046 |
| K28M | 1.5 |
| K28P | 0.519 |
| K28T | 1.03 |
| K28Y | 1.72 |
| K28Q | 1.35 |
| H34L | 1.75 |

| Variant | folding stability dG [kcal/mol] |
| --- | --- |
| H34E | 1.5 |
| V8E | 1.36 |
| V8R | 1.96 |
| V8M | 1.69 |
| V8P | 0.43 |
| V8Q | 1.58 |
| Q17H | 1.54 |
| Q17G | 1.11 |
| Q17E | 1.84 |
| Q17I | 1.51 |
| H11V | 1.61 |
| H11S | 1.43 |
| H11T | 1.67 |
| H11Y | 1.85 |
| H11L | 1.5 |
| H11R | 1.58 |
| I33V | 1.59 |
| I33D | 0.877 |
| I42Y | 1.12 |
| I42L | 0.845 |
| I42G | 1.2 |
| G31R | 1.07 |
| G31Q | 1.25 |
| G31K | 1.24 |

| Variant | folding stability dG [kcal/mol] |
| --- | --- |
| N7C | 2.65 |
| N7G | 1.71 |
| N7Q | 1.56 |
| H4L | 1.88 |
| H4K | 1.68 |
| H4Q | 1.72 |
| A18G | 1.25 |
| A18D | 0.132 |
| A18W | 1.11 |
| A18Y | 1.17 |
| A18P | -0.12 |
| A18I | 1.01 |
| L1Q | 1.45 |
| L1Y | 2.92 |
| L1I | 1.7 |
| L1K | 1.51 |
| L1F | 2.66 |
| L1A | 2.1 |
| E20V | 1.35 |
| E20W | 1.92 |
| E20T | 1.39 |
| E20Q | 1.69 |
| E20P | -0.521 |
| D13Y | 1.34 |

| Variant | folding stability dG [kcal/mol] |
| --- | --- |
| D13E | 1.6 |
| D13T | 1.74 |
| D13A | 1.43 |
| Y10G | 0.153 |
| Y10H | 0.965 |
| Y10S | 0.143 |
| Y10F | 1.54 |
| Y10M | 0.903 |
| D37W | 0.774 |
| D37Y | 0.742 |
| D37K | 0.884 |
| D37Q | 0.814 |
| D37H | 0.769 |
| D37P | 0.309 |
| D37S | 0.634 |
| G6S | 1.11 |
| G6T | 0.772 |
| G6V | 0.969 |
| G6A | 1.41 |
| G6H | 1.69 |
| K23E | 1.2 |
| K23Q | 1.55 |
| K23D | 0.88 |
| K23H | 1.58 |

| Variant | folding stability dG [kcal/mol] |
| --- | --- |
| K23I | 1.76 |
| F40D | 1.03 |
| F40A | 1.06 |
| F40V | 1.55 |
| F40L | 2.01 |
| F40G | 0.985 |
| G38K | 0.828 |
| G38P | 1.18 |
| G38L | 1.18 |
| E19Q | 1.58 |
| E19A | 1.71 |
| E19R | 1.69 |
| E19Y | 2.35 |
| E19M | 2.07 |
| A26L | 1.25 |
| A26G | 0.842 |
| A26F | 1.3 |
| V35L | 1.62 |
| V35S | 1.15 |
| V35G | 0.956 |
| V35W | 1.81 |
| V35N | 1.18 |
| V35R | 1.08 |
| V35T | 1.18 |

| Variant | folding stability dG [kcal/mol] |
| --- | --- |
| R24D | 0.976 |
| R24P | -0.675 |
| R24K | 1.63 |
| F12D | -0.211 |
| F12C | 1.44 |
| F12S | 0.081 |
| E16A | 1.68 |
| E16T | 1.68 |
| E16G | 1.48 |
| E16P | 0.809 |
| E16I | 1.66 |
| K27L | 1.75 |
| K27V | 1.6 |
| K27I | 1.76 |
| K27Y | 1.51 |
| Q39E | 1.88 |
| Q39F | 1.17 |
| Q39R | 1.09 |
| Q39P | 0.884 |
| Q39H | 1.76 |
| T9Y | 1.45 |
| T9L | 1.58 |
| T9Q | 1.29 |
